Experimental data as given in the supplement of paper PMC10065799, “High-throughput profiling of sequence recognition by tyrosine kinases and SH2 domains using bacterial peptide display” (eLife, 2023).

How the values were obtained:
MERTK = MERTK (UniProt Q12866); assay: phosphorylation enrichment, bacterial display (enrichment ratio); higher = better substrate or ligand; peptides without Tyr show the background
Fer (mouse) = assay: as above
AncSZ = assay: as above
FGFR1 = FGFR1 (UniProt P11362); assay: as above
Sequence of FGFR1 (P11362 whole entry, looked up): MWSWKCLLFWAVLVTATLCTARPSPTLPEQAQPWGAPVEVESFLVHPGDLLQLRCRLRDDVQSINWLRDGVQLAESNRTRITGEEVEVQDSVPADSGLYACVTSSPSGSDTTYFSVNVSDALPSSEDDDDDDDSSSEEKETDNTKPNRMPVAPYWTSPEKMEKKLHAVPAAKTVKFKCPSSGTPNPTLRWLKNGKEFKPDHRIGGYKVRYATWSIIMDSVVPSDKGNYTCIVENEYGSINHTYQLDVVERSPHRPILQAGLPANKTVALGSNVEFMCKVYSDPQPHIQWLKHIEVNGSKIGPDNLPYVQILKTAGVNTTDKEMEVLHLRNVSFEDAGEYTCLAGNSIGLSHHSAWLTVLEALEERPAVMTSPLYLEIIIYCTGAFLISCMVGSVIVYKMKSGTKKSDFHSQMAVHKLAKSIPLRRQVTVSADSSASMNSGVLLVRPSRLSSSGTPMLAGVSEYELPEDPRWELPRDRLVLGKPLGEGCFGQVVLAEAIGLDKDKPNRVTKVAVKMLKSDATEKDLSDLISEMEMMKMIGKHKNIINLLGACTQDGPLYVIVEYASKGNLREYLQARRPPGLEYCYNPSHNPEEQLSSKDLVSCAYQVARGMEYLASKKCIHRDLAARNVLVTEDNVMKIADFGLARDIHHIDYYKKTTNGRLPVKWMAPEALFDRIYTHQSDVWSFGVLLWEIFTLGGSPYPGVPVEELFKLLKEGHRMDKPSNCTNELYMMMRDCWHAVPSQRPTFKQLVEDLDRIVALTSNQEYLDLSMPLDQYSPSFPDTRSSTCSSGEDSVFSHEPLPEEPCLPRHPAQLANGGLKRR

FGFR3 = FGFR3 (UniProt P22607); assay: as above
Sequence of FGFR3 (P22607 whole entry, looked up): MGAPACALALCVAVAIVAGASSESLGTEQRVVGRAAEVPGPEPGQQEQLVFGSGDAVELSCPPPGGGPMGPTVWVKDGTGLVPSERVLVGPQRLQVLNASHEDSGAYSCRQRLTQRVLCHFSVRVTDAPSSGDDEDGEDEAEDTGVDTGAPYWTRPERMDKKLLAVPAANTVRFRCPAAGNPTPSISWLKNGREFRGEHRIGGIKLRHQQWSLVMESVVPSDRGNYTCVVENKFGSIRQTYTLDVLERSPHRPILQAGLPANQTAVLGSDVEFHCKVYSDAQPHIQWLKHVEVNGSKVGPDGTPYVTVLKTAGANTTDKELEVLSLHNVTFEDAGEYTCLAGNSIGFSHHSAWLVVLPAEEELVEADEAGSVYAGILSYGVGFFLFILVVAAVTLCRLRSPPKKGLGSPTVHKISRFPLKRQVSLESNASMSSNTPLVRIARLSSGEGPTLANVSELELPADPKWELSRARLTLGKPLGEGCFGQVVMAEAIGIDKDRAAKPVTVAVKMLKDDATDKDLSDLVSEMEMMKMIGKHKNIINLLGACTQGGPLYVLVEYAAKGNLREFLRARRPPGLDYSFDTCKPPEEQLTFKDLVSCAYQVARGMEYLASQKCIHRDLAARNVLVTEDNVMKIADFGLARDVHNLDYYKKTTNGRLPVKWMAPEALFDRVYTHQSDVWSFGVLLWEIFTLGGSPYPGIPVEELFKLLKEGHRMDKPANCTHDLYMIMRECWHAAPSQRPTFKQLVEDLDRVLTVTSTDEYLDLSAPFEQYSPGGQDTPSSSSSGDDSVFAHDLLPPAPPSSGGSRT

EPHB1 = EPHB1 (UniProt P54762); assay: as above
c-Src = assay: as above
Fes = Fes (UniProt P07332); assay: as above
Fyn = Fyn (UniProt P06241); assay: as above
Hck = Hck (UniProt P08631); assay: as above
c-Abl (mouse) = assay: as above
EPHB2 = EPHB2 (UniProt P29323); assay: as above
Sequence of EPHB2 (P29323 whole entry, looked up): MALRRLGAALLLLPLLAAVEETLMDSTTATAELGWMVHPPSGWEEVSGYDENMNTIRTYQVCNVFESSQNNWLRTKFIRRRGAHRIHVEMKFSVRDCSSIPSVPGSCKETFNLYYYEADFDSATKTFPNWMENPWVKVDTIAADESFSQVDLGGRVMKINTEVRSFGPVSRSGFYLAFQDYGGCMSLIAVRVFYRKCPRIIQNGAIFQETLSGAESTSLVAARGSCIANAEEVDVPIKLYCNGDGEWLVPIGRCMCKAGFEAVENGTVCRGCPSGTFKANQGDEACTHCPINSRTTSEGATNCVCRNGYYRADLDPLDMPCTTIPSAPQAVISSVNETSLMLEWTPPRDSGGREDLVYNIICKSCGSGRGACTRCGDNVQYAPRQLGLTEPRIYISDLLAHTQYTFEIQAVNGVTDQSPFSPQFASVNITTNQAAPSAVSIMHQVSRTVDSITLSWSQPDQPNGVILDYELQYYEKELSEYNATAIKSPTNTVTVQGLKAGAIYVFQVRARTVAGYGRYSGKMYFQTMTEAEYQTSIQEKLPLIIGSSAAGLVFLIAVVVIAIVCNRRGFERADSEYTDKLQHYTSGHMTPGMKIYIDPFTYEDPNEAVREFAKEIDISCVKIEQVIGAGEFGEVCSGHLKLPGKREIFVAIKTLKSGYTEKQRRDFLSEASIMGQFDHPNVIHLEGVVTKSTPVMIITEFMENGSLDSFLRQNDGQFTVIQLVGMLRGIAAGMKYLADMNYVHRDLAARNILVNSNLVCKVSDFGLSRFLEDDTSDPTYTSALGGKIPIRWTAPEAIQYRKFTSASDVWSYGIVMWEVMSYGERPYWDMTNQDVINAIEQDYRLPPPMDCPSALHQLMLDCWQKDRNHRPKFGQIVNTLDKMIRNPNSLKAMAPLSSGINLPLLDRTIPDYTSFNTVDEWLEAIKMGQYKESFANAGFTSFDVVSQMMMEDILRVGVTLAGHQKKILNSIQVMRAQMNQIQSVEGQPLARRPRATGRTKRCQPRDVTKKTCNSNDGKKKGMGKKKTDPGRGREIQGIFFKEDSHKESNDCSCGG

Jak2 = Jak2 (UniProt O60674); assay: as above
Sequence of Jak2 (O60674 whole entry, looked up): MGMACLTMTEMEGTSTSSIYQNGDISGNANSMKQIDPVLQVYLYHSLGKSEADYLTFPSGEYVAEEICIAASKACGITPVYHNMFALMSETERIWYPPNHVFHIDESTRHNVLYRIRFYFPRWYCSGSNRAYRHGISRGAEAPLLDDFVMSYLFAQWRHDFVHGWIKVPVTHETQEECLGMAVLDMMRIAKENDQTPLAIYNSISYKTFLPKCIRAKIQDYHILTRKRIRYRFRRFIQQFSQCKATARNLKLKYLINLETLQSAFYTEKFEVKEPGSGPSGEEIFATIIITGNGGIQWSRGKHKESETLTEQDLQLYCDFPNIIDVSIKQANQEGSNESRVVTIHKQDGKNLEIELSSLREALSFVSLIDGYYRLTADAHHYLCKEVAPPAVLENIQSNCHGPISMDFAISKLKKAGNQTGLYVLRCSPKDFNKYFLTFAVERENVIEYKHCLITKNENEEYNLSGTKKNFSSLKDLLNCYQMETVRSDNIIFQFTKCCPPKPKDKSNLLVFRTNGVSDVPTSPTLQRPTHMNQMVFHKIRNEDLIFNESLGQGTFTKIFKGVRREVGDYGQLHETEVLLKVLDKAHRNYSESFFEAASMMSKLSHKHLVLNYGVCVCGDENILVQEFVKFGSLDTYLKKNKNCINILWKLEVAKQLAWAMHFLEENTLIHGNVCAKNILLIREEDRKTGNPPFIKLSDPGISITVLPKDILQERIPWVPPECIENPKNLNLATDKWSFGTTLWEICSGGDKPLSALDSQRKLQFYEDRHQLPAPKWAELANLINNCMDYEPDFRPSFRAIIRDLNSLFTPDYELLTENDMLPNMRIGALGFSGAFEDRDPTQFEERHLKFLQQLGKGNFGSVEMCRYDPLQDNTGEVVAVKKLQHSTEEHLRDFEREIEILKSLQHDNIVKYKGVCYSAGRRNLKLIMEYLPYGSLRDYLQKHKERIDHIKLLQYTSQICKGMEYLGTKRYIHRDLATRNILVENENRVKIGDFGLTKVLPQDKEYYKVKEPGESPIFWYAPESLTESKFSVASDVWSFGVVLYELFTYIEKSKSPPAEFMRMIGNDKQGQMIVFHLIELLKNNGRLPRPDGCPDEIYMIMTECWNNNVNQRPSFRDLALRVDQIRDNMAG

SHP2-C SH2 = assay: SH2 binding enrichment of the phosphorylated peptide, bacterial display (enrichment ratio); higher = better substrate or ligand; peptides without Tyr show the background
Grb2 SH2 = Grb2 SH2 (UniProt P62993); assay: as above
c-Src SH2 = assay: as above
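Wherever SH2 binding enrichment of the phosphorylated peptide, bacterial display is given: peptide library displayed on the E. coli surface as eCPX fusions, selected cells deep-sequenced, score is each peptide's frequency after selection divided by its frequency in the input.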
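Wherever phosphorylation enrichment, bacterial display is given: 11-residue human phosphosite peptides and single-mutation variants displayed on the E. coli surface, counted by deep sequencing, each peptide's frequency after selection divided by its frequency in the unselected input library; frequency after pTyr selection over input frequency; kinase dosed for 20-30% of maximal phosphorylation in three min.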

Sequence of MERTK (Q12866 whole entry, looked up): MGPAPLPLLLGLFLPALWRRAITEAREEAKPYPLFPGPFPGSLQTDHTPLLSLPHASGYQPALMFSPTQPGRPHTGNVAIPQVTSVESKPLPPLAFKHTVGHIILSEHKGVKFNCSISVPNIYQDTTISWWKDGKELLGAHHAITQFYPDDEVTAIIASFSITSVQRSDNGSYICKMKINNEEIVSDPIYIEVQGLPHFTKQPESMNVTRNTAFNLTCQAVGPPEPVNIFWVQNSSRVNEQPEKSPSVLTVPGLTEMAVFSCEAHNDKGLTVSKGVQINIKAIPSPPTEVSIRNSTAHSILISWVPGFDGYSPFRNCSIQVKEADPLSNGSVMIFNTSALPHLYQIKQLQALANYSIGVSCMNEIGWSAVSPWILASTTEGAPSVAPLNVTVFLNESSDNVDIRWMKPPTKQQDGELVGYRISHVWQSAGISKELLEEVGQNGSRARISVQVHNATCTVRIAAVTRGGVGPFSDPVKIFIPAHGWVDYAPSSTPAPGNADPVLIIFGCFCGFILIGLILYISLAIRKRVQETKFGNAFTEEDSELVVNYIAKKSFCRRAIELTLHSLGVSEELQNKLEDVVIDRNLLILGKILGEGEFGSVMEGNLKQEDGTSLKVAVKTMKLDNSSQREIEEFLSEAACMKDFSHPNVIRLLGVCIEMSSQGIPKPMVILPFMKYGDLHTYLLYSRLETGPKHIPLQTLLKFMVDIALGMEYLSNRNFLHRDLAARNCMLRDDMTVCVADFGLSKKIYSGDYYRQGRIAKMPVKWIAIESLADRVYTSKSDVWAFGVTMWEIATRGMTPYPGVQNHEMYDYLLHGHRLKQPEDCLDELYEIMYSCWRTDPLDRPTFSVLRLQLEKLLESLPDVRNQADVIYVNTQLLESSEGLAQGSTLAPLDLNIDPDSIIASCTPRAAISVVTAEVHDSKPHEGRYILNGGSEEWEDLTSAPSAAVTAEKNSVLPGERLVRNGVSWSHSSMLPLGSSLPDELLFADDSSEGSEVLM

SH2 binding enrichment (SHP2-C SH2) | SH2 binding enrichment (Grb2 SH2) | SH2 binding enrichment (c-Src SH2) | Sequence | phosphorylation enrichment (MERTK) | phosphorylation enrichment (Fer (mouse)) | phosphorylation enrichment (AncSZ) | phosphorylation enrichment (FGFR1) | phosphorylation enrichment (FGFR3) | phosphorylation enrichment (EPHB1) | phosphorylation enrichment (c-Src) | phosphorylation enrichment (Fes) | phosphorylation enrichment (Fyn) | phosphorylation enrichment (Hck) | phosphorylation enrichment (c-Abl (mouse)) | phosphorylation enrichment (EPHB2) | phosphorylation enrichment (Jak2)
0.516 | 0.71 | 0.983 | KGFCGYSFDDI [TMEM230_Y110_R108C_YF] | 0.471 | 0.504 | 1.18 | 0.595 | 0.863 | 0.613 | 1.16 | 1.35 | 0.526 | 0.456 | 1.07 | 0.568 | 1.28
1.48 | 0.983 | 8.99 | CTTIHYDYMCN [TP53_Y234_N235D] | 0.591 | 1.17 | 1.31 | 0.687 | 0.631 | 0.644 | 0.675 | 0.994 | 0.657 | 0.635 | 0.708 | 0.723 | 1.03
0.663 | 1.75 | 2.47 | PTYEHYANSTQ [SLC12A3_Y70] | 0.912 | 0.828 | 1.05 | 0.492 | 0.807 | 1.2 | 5.29 | 1.2 | 2.56 | 1.53 | 0.753 | 2.33 | 0.924
0.844 | 0.688 | 0.458 | DAASNYARGHF [TUBA3E_Y103_YF] | 0.465 | 0.403 | 0.503 | 0.41 | 0.526 | 0.502 | 0.394 | 0.584 | 0.398 | 0.47 | 0.537 | 0.514 | 0.604
1.92 | 0.983 | 0.908 | SIYKDYYRYNF [PLA2G2D_Y85] | 5.06 | 1.32 | 1.39 | 13.6 | 11.1 | 5.65 | 4.42 | 0.918 | 4.34 | 3.09 | 5.64 | 5.61 | 8.28
0.456 | 0.475 | 0.399 | FRRITYHNWRH [PDE6B_Y556_YF] | 0.518 | 0.571 | 0.785 | 0.432 | 0.458 | 0.309 | 0.535 | 0.635 | 0.593 | 0.527 | 0.577 | 0.515 | 0.627
0.604 | 0.774 | 0.585 | MKNDLYQTPLH [NFKB1_Y582_R578K] | 1.81 | 2.2 | 1.4 | 0.473 | 0.502 | 0.668 | 1.63 | 0.695 | 1.16 | 4.13 | 5.91 | 1.11 | 0.727
1.4 | 1.51 | 0.95 | VVLVSYVPSSQ [SH2B1_Y624] | 0.424 | 0.388 | 0.784 | 0.506 | 0.703 | 0.557 | 0.336 | 0.874 | 0.452 | 0.433 | 0.614 | 0.454 | 0.751

More lines, now with the values behind:

Sequence | SH2 binding enrichment (SHP2-C SH2) | SH2 binding enrichment (Grb2 SH2) | SH2 binding enrichment (c-Src SH2) | phosphorylation enrichment (MERTK) | phosphorylation enrichment (Fer (mouse)) | phosphorylation enrichment (AncSZ) | phosphorylation enrichment (FGFR1) | phosphorylation enrichment (FGFR3) | phosphorylation enrichment (EPHB1) | phosphorylation enrichment (c-Src) | phosphorylation enrichment (Fes) | phosphorylation enrichment (Fyn) | phosphorylation enrichment (Hck) | phosphorylation enrichment (c-Abl (mouse)) | phosphorylation enrichment (EPHB2) | phosphorylation enrichment (Jak2)
KNDSKYVVKGN [KIT_Y823_N822K] | 0.653 | 0.999 | 0.572 | 0.316 | 0.258 | 0.52 | 0.382 | 0.444 | 0.326 | 0.473 | 0.56 | 0.314 | 0.379 | 0.531 | 0.317 | 0.677
CTLSVYRQLHN [LUZP1_Y1036] | 0.608 | 0.655 | 0.464 | 0.435 | 0.536 | 1.1 | 0.513 | 0.823 | 0.622 | 0.412 | 1.29 | 0.466 | 0.456 | 0.771 | 0.631 | 1.07
ERMKVYVPIGF [EPHX1_Y393_T396I] | 0.909 | 0.76 | 0.556 | 0.478 | 0.425 | 0.67 | 0.412 | 0.538 | 0.623 | 0.907 | 0.742 | 1.13 | 0.622 | 0.543 | 0.497 | 0.597
LSIQCYLRALD [HMGCS2_Y262] | 0.49 | 0.708 | 0.454 | 0.802 | 0.822 | 2.06 | 0.672 | 1.91 | 1.25 | 1.01 | 2.81 | 0.825 | 1.12 | 1.98 | 1.31 | 2.35
KPGVNYFFQVS | 1.18 | 0.993 | 0.606 | 0.508 | 0.582 | 1.15 | 0.85 | 1.09 | 0.695 | 0.408 | 1.38 | 0.538 | 0.588 | 0.801 | 0.577 | 1.28
ITNLLYHLVGW [GBA_Y412_V414L] | 1.84 | 1.72 | 1.49 | 8.16 | 3.17 | 1.09 | 6.54 | 5.47 | 2.74 | 2.99 | 0.866 | 2.56 | 4.8 | 0.703 | 1.04 | 1.47
NKYTTYLPRLP [C9orf24_Y126] | 0.776 | 0.905 | 0.991 | 0.483 | 0.38 | 0.575 | 0.402 | 0.418 | 0.454 | 0.616 | 0.684 | 0.51 | 0.714 | 0.625 | 0.386 | 0.706
NAPNSYGRRPS [CDKN2A_Y44_I49S] | 0.533 | 0.774 | 0.747 | 0.499 | 0.588 | 0.805 | 0.46 | 0.541 | 0.481 | 0.49 | 0.849 | 0.582 | 0.512 | 0.63 | 0.593 | 0.711
